# According to paper PMC8415317 (Genes & Development, 2021):
# Entries after “also recorded” stand apart in the source; their conditions may differ. Marks after values point to notes of the source that are not given here.
# T1: ERH-2:PID-3^pep 1:2 (Caenorhabditis elegans, UniProt O76616+Q20057)
# T1 sequence (Q20057 1-113): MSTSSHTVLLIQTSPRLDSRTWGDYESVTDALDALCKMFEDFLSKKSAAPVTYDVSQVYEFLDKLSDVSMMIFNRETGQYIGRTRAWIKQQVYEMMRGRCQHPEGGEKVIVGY
# T1 sequence (O76616 171-203 partner limits assumed): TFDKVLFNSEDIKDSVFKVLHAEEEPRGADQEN
# T2: ERH-1 (Caenorhabditis elegans, UniProt Q22640)
# T2 sequence (Q22640 1-103): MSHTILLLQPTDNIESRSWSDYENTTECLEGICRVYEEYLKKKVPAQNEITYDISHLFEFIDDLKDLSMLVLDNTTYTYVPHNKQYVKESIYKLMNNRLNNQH
# T3: ERH-2 (Caenorhabditis elegans, UniProt Q20057)
# T3 sequence (Q20057 1-113): T1 sequence (Q20057 1-113)
# B1: TOST-1^FL: full-length TOST-1 (protein)
# chain: MTTAIQYQVIPLADREHSNKVASILENKYKTATNKRITLNERFGVLEKGYTIQATEPETVKNDSDVFFVVHDRNLNSKKEFVENYLAKNPIVNSPEKVFEEEDKENAPTKKAVLKPSSTDEKKLTSSDIYIQEITRSILQSV
# modifications: left off: His6, N-terminal, state not stated | Trx, N-terminal, state not stated
# B2: PID-3^RRM: PID-3 RRM domain, residues 196–274 (protein)
# chain: PRGADQENMLKISGYPGMLNTFGIAQLLTPYRVNGITITGAQSAVVALENKFQVYQAVQDFNGKKLDRNHKLQVSSLVV
# modifications: left off: His6, N-terminal, state not stated | GST, N-terminal, state not stated
# Tests used:
# [1] = target: T1, ERH-2:PID-3^pep 1:2; experiment: Isothermal titration calorimetry, binding to ERH-2:PID-3^pep 1:2; design: species or system C. elegans; details: ITC, 25°C, 50 mM Tris, 250 mM NaCl, 1 mM TCEP, pH 7.50; 20 μM ERH-2:40 μM PID-3^pep in cell, 431 μM TOST-1^FL in syringe; average and SD of two or three measurements
# [2] = target: T2, ERH-1; experiment: Streptavidin pull-down, TOST-1/PID-1 mVenus-Strep bait with ERH-1; assay type: binding, C. elegans; details: TOST-1 or PID-1 mVenus-Strep bait 10-20 μM, prey 1.2-fold molar excess, 4°C
# [3] = system: ERH-2; experiment: Streptavidin pull-down, TOST-1/PID-1 mVenus-Strep bait with ERH-2; assay type: binding, C. elegans; details: TOST-1 or PID-1 mVenus-Strep bait 10-20 μM, prey 1.2-fold molar excess, 4°C
# [4] = system: ERH-2 alone, ERH-2/PID-3 subcomplex, full PETISCO; experiment: Streptavidin pull-down, TOST-1-mVenus-Strep with ERH-2, ERH-2/PID-3 or PETISCO; assay type: binding, C. elegans; details: TOST-1-mVenus-Strep as bait
# [5] = target: T3, ERH-2; experiment: NMR-monitored titration of 15N-labeled ERH-2; assay type: binding, C. elegans; details: TOST-1^FL added to 15N-labeled ERH-2, 25°C
# [6] = target: T3, ERH-2; experiment: Isothermal titration calorimetry, binding to ERH-2; design: species or system C. elegans; details: ITC, 20 μM ERH-2 in cell, 431 μM TOST-1^FL in syringe; N fixed at 1, not fitted
# [7] = system: ERH-2/PID-3; experiment: SEC assay, ERH-2/TOST-1/PID-3 complex; assay type: binding, C. elegans; details: full-length ERH-2, TOST-1 and PID-3, 1:1 ratio
# [8] = SEC-MALS, molecular mass and oligomeric state; assay type: physicochemical, C. elegans
# [9] = system: PID-3/TOFU-6 interaction; assay type: binding, C. elegans
# [10] = system: TOFU-6^RRM; experiment: SEC assay, TOFU-6^RRM with PID-3^RRM; assay type: binding, C. elegans; details: 1:1.5 molar ratio, Superdex 200 Increase 10/300
# [11] = system: Cy5-labeled 16-mer oligo(U) RNA; experiment: Fluorescence anisotropy RNA binding, Cy5-U16; details: 100 nM Cy5-U16 RNA, pH 7.5, 15°C
# [12] = system: ERH-2; assay type: binding, C. elegans
# [13] = system: FITC-labeled 28-mer RNA based on the 21U-3372 precursor; experiment: Fluorescence anisotropy RNA binding, FITC-28-mer pre-piRNA; design: species or system C. elegans; details: 100 nM FITC-28-mer RNA, pH 7.5, 15°C
Molecule,Kd [1],binding to ERH-1 in streptavidin pull-down [2],binding to ERH-2 in streptavidin pull-down [3],"pull-down of ERH-2 alone, with PID-3 or within PETISCO [4]",amide CSPs of full-length protein vs peptide [5],N (stoichiometry) [6],trimeric complex formation by SEC [7],oligomeric state [8],PID-3/TOFU-6 interaction in pull-down [9],PID-3^RRM/TOFU-6^RRM interaction by SEC [10],relative RNA binding affinity [11],binding to ERH-2 in GST pull-down [12],relative RNA binding affinity [13]
B1,15 ± 2 µM,interacted with ERH-1; also recorded: more efficient bait than PID-1,Both PID-1 and TOST-1 bound ERH-2; also recorded: more efficient bait than PID-1,pulled down ERH-2 in all conditions; also recorded: more ERH-2 is pulled down when ERH-2 is in complex with PID-3 or as part of PETISCO,very similar amide CSPs,1^c,elutes at smaller elution volumes than the dimeric subcomplexes,–,–,–,–,–,–
B2,–,–,–,–,–,–,–,homodimers,the RRM domains of PID-3 and TOFU-6 mediate the interaction between the two proteins,This is supported by SEC,lowest binding affinity,failed to bind ERH-2,lowest binding affinity
